# B1: chimeric HEPC74 HC – VRC01 LC (antibody, V domains shown)
# VH: QVQLVQSGAEVKKPGSSVKVSCTTSGGTYINYAISWVRQAPGQGLEWVGGMSPISNTPKYAQKFQGRVTITADESTSTTYMELSSLRPEDTAVYYCARDLLKYCGGGNCHSLLVDPWGQGTLVTVSS
# VL: EIVLTQSPGTLSLSPGETAIISCRTSQYGSLAWYQQRPGQAPRLVIYSGSTRAAGIPDRFSGSRWGPDYNLTISNLESGDFGVYYCQQYEFFGQGTKVQVD
# Biological target: UKNP5.2.1 E2E1-I53-50A trimer (hepatitis C virus genotype 5, strain UKNP5.2.1)
binder,measurement,value
B1,"neutralisation of UKNP5.2.1 HCVpp, IC50 (the only HCVpp neutralised)",4.4 µg/mL
